Test system: peptide library, one residue held at a place counted from the Y acceptor
Assay: relative phosphorylation of the sub-library (ratio to the mean residue at this position); higher = residue favoured
Method in brief: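 Biotinylated Tyr-centred peptide library mixtures, each fixing one residue at one position from −5 to +5, were incubated with purified recombinant kinases in 384-well plates for 90 min with 50 μM ATP plus γ-32P-ATP. Streptavidin membranes captured the peptides, which were rinsed and quantified by phosphorimaging and ImageQuant. At each position, intensities were divided by the sum of the 18 randomized residues (16 for the Ser/Thr-free library) and multiplied by that number. Each value is phosphorylation relative to the mean randomized residue.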

AXL, construct: aa473-end, human, sequence (P30530 473-894, looked up): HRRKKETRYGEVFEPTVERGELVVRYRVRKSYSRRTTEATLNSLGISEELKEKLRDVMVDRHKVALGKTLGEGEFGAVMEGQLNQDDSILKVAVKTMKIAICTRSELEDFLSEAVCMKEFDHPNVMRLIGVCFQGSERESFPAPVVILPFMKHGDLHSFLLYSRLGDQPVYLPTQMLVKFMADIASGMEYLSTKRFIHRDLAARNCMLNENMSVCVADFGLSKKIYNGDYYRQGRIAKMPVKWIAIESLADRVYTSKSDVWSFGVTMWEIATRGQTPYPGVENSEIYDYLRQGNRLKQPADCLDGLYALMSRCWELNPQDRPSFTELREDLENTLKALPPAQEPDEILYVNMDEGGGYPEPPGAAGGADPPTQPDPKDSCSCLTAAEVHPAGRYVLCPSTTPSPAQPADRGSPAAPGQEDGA

AXL, construct: aa473-end, human (from UniProt P30530)
relative phosphorylation
Settings	at +1	at +2	at +3	at +4	at +5	at -1	at -2	at -3	at -4	at -5
A fixed	1.58	0.759	0.52	0.973	0.953	0.707	0.976	0.87	1.16	0.962
D fixed	0.68	0.48	0.401	0.874	1.06	0.354	0.754	0.897	0.884	0.822
E fixed	1.19	0.946	0.327	1.07	1.01	0.34	0.896	1.15	1.1	0.813
F fixed	1.12	1.43	1.61	1.03	0.877	1.51	0.6	0.911	0.948	0.965
G fixed	0.671	0.33	0.527	1.41	1.81	0.306	1.39	1.25	1.36	1.36
H fixed	1.1	0.976	1.05	1.33	0.794	1.77	1.1	1	0.905	1.08
I fixed	1.42	1.31	2.32	0.763	0.446	2.51	0.913	0.722	0.915	0.969
K fixed	0.356	0.723	0.289	0.849	0.911	0.718	1.21	1.09	1.15	1.11
L fixed	0.971	1.33	2.33	0.84	0.548	2.03	0.762	0.792	0.986	0.913
M fixed	1.09	1.13	1.55	1.02	0.69	1.05	0.639	0.84	0.891	0.977
N fixed	0.352	0.811	0.456	0.806	1.25	1.1	1.16	1.29	0.905	1.02
P fixed	0.183	0.751	0.892	1.29	2.23	0.518	1.1	1.25	1.09	1.18
Q fixed	1.02	0.801	0.818	1.18	1.14	0.595	1.23	0.965	1.08	1.11
R fixed	0.457	0.845	0.425	0.928	0.64	0.549	1.14	1.12	1.19	1.26
S fixed	1.2	0.804	0.633	0.894	1.18	0.649	1.44	1.23	0.873	0.843
T fixed	1.29	0.941	0.79	0.849	1.13	0.862	1.11	1.04	0.826	0.841
V fixed	1.72	1.2	1.45	0.744	0.6	1.27	1.05	0.785	0.862	0.827
W fixed	1.6	2.42	1.61	1.16	0.723	1.15	0.539	0.791	0.88	0.963
pThr fixed	1.2	0.933	0.308	0.609	0.743	0.426	0.736	0.827	0.7	0.706
pTyr fixed	1.74	2.15	0.402	0.659	0.818	1.08	0.692	1.06	0.883	0.7

Reference: the supplement of paper PMC11136658
